From the DeepSol protein solubility set come the findings set out here.

The series is described as follows: soluble on expression in E. coli; label from the status in PepcDB or PDB records.
In the case of “SFDNLRNELSRPYGILFINNKIFLEFISKSIQRGSRIITVGDYVSRVLEENGIVPFLEVIDGKTKRTITQNRAITRNKEYKVTNEAGKIRFEIFEIMENILKDREGGVVFVDGEEDLLVIPVTLSANHGDIVIYGQPNAGAVVIIVNEMIRWRVRDILEKAIVKE”, the “soluble on expression in E. coli” value is given as “not soluble”. For “MSLASLPISNFFTFNHQSTLFTKVKNFMGVKHIGDCMKALINGTIYTSFSPVKKVSGLVISNERVLYAGDSSTALRIAELAGGEIIDLKGKFVMPAFFDSHLHLDELGMSLEMVDLRGVKSMEELVERVKKGRGRIIFGFGWDQDELGRWPTREDLDVIDRPVFLYRRCFHVAVMNSKMIDLLNLKPSKDFDESTGIVRERALEESRKIINEKILTVKDYKHYIESAQEHLLSLGVHSVGFMSVGEKALKALFELEREGRLKMNVFAYLSPELLDKLEELNLGKFEGRRLRIWGVKLFVDGSLGARTALLSEPYTDNPTTSGELVMNKDEIVEVIERAKPLGLDVAVHAIGDKAVDVALDAFEEAEFSGRIEHASLVRDDQLERIKELKVRISAQPHFIVSDWWIVNRVGEERAKWAYRLKTLSSITKLGFSTDSPIEPADPWVSIDAAVNRYVVDPGERVSREEALHLYTHGSAQVTLAEDLGKLERGFRAEYIILDRDPLKEMKGIITITTDPNSSSVDKLAAALEHHHHHH”, the “soluble on expression in E. coli” value was “soluble”.

As to “GHMRRELAIEFSRVTESAALAGYKWLGRGDKNTADGAAVNAMRIMLNQVNIDGTIVIGEGEIDEAPMLYIGEKVGTGRGDAVDIAVDPIEGTRMTAMGQANALAVLAVGDKGCFLNAPDMYMEKLIVGPGAKGTIDLNLPLADNLRNVAAALGKPLSELTVTILAKPRHDAVIAEMQQLGVRVFAIPDGDVAASILTCMPDSEVDVLYGIGGAPEGVVSAAVIRALDGDMNGRLLARHDVKGDNEENRRIGEQELARCKAMGIEAGKVLRLGDMARSDNVIFSATGITKGDLLEGISRKGNIATTETLLIRGKSRTIRRIQSIHYLDRKDPEMQVHIL”, the “soluble on expression in E. coli” value is listed as “soluble”. The result for “MTHELISLPYAVDALAPVISKETVEFHHGKHLKTYVDNLNKLIIGTEFENADLNTIVQKSEGGIFNNAGQTLNHNLYFTQFRPGKGGAPKGKLGEAIDKQFGSFEKFKEEFNTAGTTLFGSGWVWLASDANGKLSIEKEPNAGNPVRKGLNPLLGFDVWEHAYYLTYQNRRADHLKDLWSIVDWDIVESRY” reads “soluble”. Consider “MALAPHAVHRLYEYRKSISTKPFGARGKKLIRCPLCLLGEQFCTCSLRKQLTTQASFLLIMYNDEVLKPTNSGRLIADLIPDTHAFLWSRTDPAPELLALLSSDHYQPFLVFPAQYADQGQTVLSQVPMATLAKGKRPLLIMLDGSWREAIKMFRKSPYLQGLPILSFDPDTLATYALRKGSHDFQLGTAEVASLALAAMGEEANGKALTAWFDLFVESSLLGRNRRCREDILPISDFTNAFEVAYTAATP”, for which the “soluble on expression in E. coli” value is “not soluble”. The same measure for “MSLKVKAINLYTYKEPFKSPISTPKVKLTHRESLFTEIVTYSGETYYGECNAFLTNWYDKETILTVVNRLRQWIPQVLHKDMTSFDSWLPYLNQMNDAPAARSMVVMAVYQMYNDLHDFEVQYGATVSGLTNSQIETLLETRPKRIKLKWSTSLIKDLETIRLLNFDCDIAIDANESLTKPSFLQLANVNTSDIIYIEEPFKILEDLNDIDMSIFPRIAIDEKALSIEKIQSIIQQYPIQVVVLKPFRLGGIDRMLNAMKILKEKNIRFVVGGMYEFGLSRYFTAMLAKEGSYPGDITPHGYYFSNDIVETSGILKGGMIYFTPPKVKRSLLNKVEGHHHHHH”: “not soluble”; for “QTLTEEEVLKKLDKEQMRASFEDMRRIMPDLGFEAKGYALSFEQLAQLKIPVIVYLKYRKDDHFSVLRGIDGNTVLLADPSLGHVSMSRAQFLDAWQTREGNLAGKILAVIPKKAETISNKLFFTQHPKRQTEFTVGQIRQARAE”: “not soluble”; for “MGSDKIHHHHHHMYIFRSIHEIINTIFVAKGLLVEMFEKRKVLSFRYSDALALLKEDENRLKILIEKEIIHQNGNFVELDARFLDFFELLLEANEEINTATVEENIEYLHELMDYYLKEKIQSRKESYVRNIKITFQKLARVTIRNIINLQHNIDNAFKHEPTYQIKIAKLQNLDKKRINIQRLIDSTEHLILHEERDFFRQATDEELTRILLELRQELQLSAHSLIRAQQDIINYLNQIKNQVILVEKIRKVKYLQDQFELRARSNLSEIMERERSLLLEGNTQASFKLSPSYLASDEVRPIILKVISNQKYREIVRKNEAGAFSEEDLEAQAMYEEVINLDEVVTAFVQSGAEARWKGEPVSDLFSFLLQYHFHREVDEKERTTFFCQIVSLYESQLEIRNEFGLHNQYEYAKIYPL”: “not soluble”. The same measure for “MRKINTNKNDSQIYSRGFIMRNIRPSQLGQYIRRALRLHFIPVVLVAAPSVMANTNQETEQLETLVVTASALKVETPAQETPKALSIVTQEEIVARAPQKLDEALRYTSGVTAQPYGADNDTDWLKVRGFDAATYQDGSRLFRDGYYTWLIEPYALERIEVLKGPASILYGEAPPGGVVNAVQKKPTDIPQGEVGLQVGNDALRTLTLDISDYANQDGSVRYRLVALMKENDGQLNGTQTSRNYLAPSLSIDISEQTRLTLLASFLEDSGVPTNPFFPAAGTLIDSNFGHIDPSTNLGQPDYDKYERRQVSLGYLFEHDLNDVWALSQTFNYGDNDLYLRSSYAFSNDDPSKDTLTQGIVFRDGSTESLSLDNKAVAKWDSARVENTLLMGLELQRHQTQGVELDNYSFGTINPFNPNYGNFTPIDESSAADRTITKEQASLYAQYQIKLDQQWIGLIGGRMDWVDTENESQKNMQRKSRSDAEFSFNAGLMYLASNGVSPYLSYSQSFDVLSTIDSAKGELYKPLKGEQTEVGVKYQPEFYDGYINLAWFDITQQNALVTNPTTFVATQTGEMTAQGIEVESVGYVTDSLKLTASYTFTDAKTDETGGKGTQQAGLIPKHQASAWLDYDAAQLGLQGWTFGSGVRYIGESKDNPRSSDRTVPSVTLVDLMAGYEITENWQVQLNINNLFDREFVSGCDYWCYYGQSRSAVLSANYRW”: “not soluble”; for “MSLRQGKIRVVLADDHTMFRQGLKEMLLTGGDIEVVGEAEDGRAALEEIRRHKPDVAILDVEMPEMDAREVMVRLPEASPHTRAVIVTVFAEARLARELVRLGARAYVTKNATLQELLAAVRSAARAAGGDNVLLAVPRGLIEGSGGPEGCELSERELEILLLVARGLSNRQVASELHLAEATVKRHLANVYAKLNVGSRGEAVRKALSKGWFTSRDVTEGHHHHHH”: “soluble”; for “GSEDTMDRINKDHDHTTSVASRFILADVITSTAFSNASGDINTYASSYIEYEVGVDNQLYYAEVRENEPSSSSTFNNSWNGIYSSLKNARIIIDQCGEGGRDHGNDVTRGMAEVMAAYNCALIADFFGDAPCSQAALVDEKGSPVYMTPKMDTQQEIYTQIISYLDDAIANLQKEDLADVTEQDFLYAGDADKWLKFAYGLKARYTMRLINRSSNKSADYEKVLDYVSKSFTSADDQAAFDIYDSNNINPFYGFYNSRAGFGASTSLGTKLLAYNDPRANRAFFTPIVDKKRSQVAANDPSLVPAPNGSPDQSTSKYGISAFVYAKTAPTLLMSYHELMFLKAEALCRLNRDAEDALKEAVVAGLLNAENSISIAIKELGSGLNTNSSEVITETSAGKYFDDVVKAKYAANPLQETMIQKYLAMWGASGEATETYNDFRRMKGLNENFITLTNPNNSSKFPLRYPYGNSDTAANPEVKAAYGNGDYVYSEPVWWAGGSR”: “soluble”. The same measure for “GPGSMVSTRETLSVEEQRYLDQELPPRELLTSLRSRDRSPTDDNETDVTVPGDSFGIMRNRVAFYKPVPRDVYSGELGECFPEGCHPLRCVNPATLHHLSERFGVSIREAVKAMQNAQMDINIAIDELCRRKCIDPPAGSFGLVGLESYASETFCLVNFTLPSLEATRDDDVLDALHELTLSAAEIPLDTPTEDLVDKFVNNWTVEDGRSCKDVLDMYDLGVNKIVLLPHGDYSVEGFYVLHPVKEDTPNIGTGAAACCLDLRTGIHNRFRFHVERIADSVSEHVIRELVHYGQDVHVLRQAYWFKPEYSVEEYIRFKESLLQPSASVFEMRYAVLAVGSYALPGYRNLVEMEKLKVAQHKYEKHYEDFMSPGKWLTSDNSQLQTVAAGGGNAPGAALHMHTNGPDVALNAMETRAGPLRRTLETSIQAHGDRVFSRFYRNNHH”: “not soluble”; for “MIDEPTGLYNRLRLQEDVSLRLQRDGALTVIAADLLPLALLNTIIRTLGYPFSNDLMLEARDRIRAELPDFTLYKISPTRFGLLLPRQQQEETESVCLRLLRAFESPVVCRGIPIKANVGLGVLPLADDTLDGDQDWLRLVVSAADDARDRGVGWARYNPPLDQAQQRLEHHHHHH”: “soluble”; for “MLASARRALHPGHPPAIHRAMNSEIDPGRCPLCQQSNRCTLAYPTSATQACWCFTTEIDAAVLERIPAELRRRACLCPRCAQLLPPDADD”: “not soluble”. As for “MNNQLVISDYIFPIHQYGKMGTIHSVFERSFNLKVQDQLINVANFHNYLSSFGMFLPDQLFQEIFPYVQQGNKVKITENQLTFYSTVGVKTIQLTPAEVVSLNITHFKLEKDQLRLLRDRLLARNLERRIGLPLDERAKHIFKKMSQKQKVWTLSEWQEVTNYLIGRGKGLTPSGDDILVAYQTILFILADERAAALAATLSAANLSTTDVSKGYIASSAKGYVNSLLYQLLLDLENHRDNRVDENIDRIIQIGHSSGKDMSFGMLLALQSVELDEK”, the “soluble on expression in E. coli” value was “not soluble”. With “MGSDKIHHHHHHMSATKIDAVYLDADVTAYKGNPFIEALPPLQESVNSAAALRSTSLFDASDLQKPRVVRAHSICRITNDFFQPLGSHMLLSERVSLMIRGGYVGRNPKTGDLQRHLQNGYERVQSGDLSSFRFEEAKSTAQSMLLIGCSGSGKTTSLARILDTYPQVIYHPTMNFEQVVYLKVDCSHNGSLKEICLNFFRALDKALGSNYEKKYGLKRNGIETMLALMAQIANAHAVGLLVIDEIQHLSRAKSGGPEAMLNFFVTMVNTIGVPVMLIGTPKAREIFEIDLRSARRGSGLGAIFWEPMKQGPNGKRNPEWAAFTDNLWKQQLLQSKDLVLTDDLRDLWYDLSQGVMDTVVKLFVLSQLRALALGKERLTPGLMKQVYKDELKPVHPMLEALRSGVPEKIAQYSDLMLPEMDKRLIQLQRDIAGMKVETPEELALKQLATDDERRIYLMLKDDYDSSLLVATVRKAFAENPKLTRPQLLPVILNWLSDTDNPVKPEQPKTQVKNTKPDQWDTLDWDDLRYISSQQQSAAAMHSALGTKGLLFDLRRRMT”, the “soluble on expression in E. coli” value is reported as “not soluble”. The same measure for “MATRSCVSRGSAGSAAAGPVEAAIRAKLEQALSPEVLELRNESGGHAVPAGSETHFRVAVVSSRFEGMSPLQRHRLVHEALSEELAGPVHALAIQAKTPAQWRENPQLDISPPCLG”: “soluble”; for “MLDKVIYSLLRTQDPGLAQELYFRLQAKEQSFAEVAQKYSQGPESQTGGLVGPVEQSSLHPAMVQLLSSCQPGQISPPTRITELEHHHHHH”: “not soluble”. The same measure for “MKEDTLLRKLVADGEGVGDDRKVQQIATFFRESRKEDAKTSVPEAVKVTKAIEEMYKKMEVAKNELADAKIVKRNRQEYRKLVNVLEEVPSRAETTRKLGEVKDDLERQHERQKVLEAKLMDRRNHLQAFMIILSNFQRFCAEDDDDDAEVMSNPGEDDDAASVTEKQQEDDVRK”: “not soluble”; for “MGHHHHHHSHMGYIYIVSFGDVEDRLLLADASNVKEIFDLEVRVSTVKADIEEAYNPQRNQYHAGTILSYLSRVVYPDMVRLVALVSFDLYEEGLNFVFGEAQYGGKYAVVSTYRLYHPDERVFFERVFKETNHELGHTFGLKHCPDPYCVMSFSNSIDEVDRKSRDFCPNCRRKLDYVLSYYR”: “not soluble”.
